In patent US20250333486A1 (NATIONAL HEALTH RESEARCH INSTITUTES, published 2025):
Residue numbers refer to the chain shown, from its start. In names and notes the source's numbering stands.

How the values were obtained:
[1] = biological target: T1, recombinant 732-amino acid full-length human HSP90α (rHSP90α; PeproTech) (human, UniProt P07900 1-732, limits assumed); assay: SPR, Biacore T200; antibody captured on Protein A chip, rHSP90α 1.5625-100 nM as analyte; 1:1 model
T1 construct: Bought protein used as immunogen, ELISA coat (12.5 ng/ml), Biacore analyte and cell stimulus; also called recombinant human HSP90α; eHSP90α
Description: (§1) To measure the HSP90α-binding characteristics of anti-HSP90α antibodies, binding kinetic assays were performed using Biacore T200 (Cytiva Co., Marlborough, MA, USA). The interested anti-HSP90α antibodies were applied onto Protein A Series S sensor chips as ligands to achieve approximately 3000˜5000 response units. A series of concentrations of rHSP90α (1.5625-100 nM) in HBS-EP+ buffer were injected over the chip surface. The association was monitored for 60 sec, and the final dissociation time was 1500 sec.

[2] = biological target: T1, recombinant 732-amino acid full-length …; assay: SPR, Biacore T200, fitted to a 1:1 interaction model [b]
Description: as §1

VGSDEEEEKK = biological target: T2, VGSDEEEEKK; assay: peptide-scanning ELISA on plates coated with 10-a.a. peptides [b]
T2 construct: HSP90α a.a
T2 peptide: VGSDEEEEKK
Text: (§2) At first, the domain scanning strategy was used to roughly delineate the HSP90α region responsible for the binding with our prepared antibodies. The above-mentioned full-length HSP90α and its 3 truncated fragments were employed to coat 96-well ELISA plates for assaying the binding activities of the tested mouse monoclonal antibodies. […] Therefore, in peptide scanning strategy, a 132 peptide library was synthesized by Mimotopes Pty. Ltd. (Melbourne, Victoria, Australia), consisting of a series of 10-a.a. peptides offset by 2 a.a. to span the sequence of the a.a. […] This series of peptides were used to coat 96-well ELISA plates for assaying the binding activities of the tested antibodies. […] These peptides were subjected to ELISA as described above.

DKEVSDDEAE = biological target: T3, DKEVSDDEAE; assay: as above
T3 construct: HSP90α a.a
T3 peptide: DKEVSDDEAE
Text: as §2

EDKEEEKEKE = biological target: T4, EDKEEEKEKE; assay: as above
T4 construct: HSP90α a.a
T4 peptide: EDKEEEKEKE
Text: as §2

EDVGSDEEEE = biological target: T5, EDVGSDEEEE; assay: as above
T5 construct: HSP90α a.a
T5 peptide: EDVGSDEEEE
Text: as §2

KPEIEDVGSD = biological target: T6, KPEIEDVGSD; assay: as above
T6 construct: HSP90α a.a
T6 peptide: KPEIEDVGSD
Text: as §2

EIEDVGSDEE = biological target: T7, EIEDVGSDEE; assay: as above
T7 construct: HSP90α a.a
T7 peptide: EIEDVGSDEE
Text: as §2

a.a. 630~732 = biological target: T8, a.a. 630~732; assay: domain-scanning ELISA on plates coated with full-length or truncated His-tagged HSP90α [a]
T8 construct: not shown: left out of the chain
Text: as §2
As listed in the above Table 3, HH01 antibody is capable of binding specifically to the human HSP90α with novel amino acid (a.a.) sequences in the complementarity determining regions (CDRs), and therefore we intended to identify which region of HSP90α was bound by HH01 antibody. In a preliminary study, we employed the strategy of HSP90α domain scanning to delineate the HSP90α region responsible for the binding with Clone-2 antibody. […] Subsequently, the binding activities of Clone-2 antibody to the full-length and truncated HSP90α were assayed by a conventional ELISA method.

SDEEEEKKDG = biological target: T9, SDEEEEKKDG; assay: peptide-scanning ELISA on plates coated with 10-a.a. peptides [c]
T9 construct: HSP90α a.a
T9 peptide: SDEEEEKKDG
Text: as §2

EVSDDEAEEK = biological target: T10, EVSDDEAEEK; assay: as above
T10 construct: HSP90α a.a
T10 peptide: EVSDDEAEEK
Text: as §2

KEKEEKESED = biological target: T11, KEKEEKESED; assay: as above
T11 construct: HSP90α a.a
T11 peptide: KEKEEKESED
Text: as §2

[3] = biological target: T12, CD91, cell-surface receptor of eHSP90α, on PANC-1 cells (UniProt Q07954 20-4544, limits assumed); assay: proximity ligation assay (PLA) in PANC-1 cells, 15 µg/ml rHSP90α, with or without 10 µg/ml control IgG, Clone-2 or Clone-6 [d]
T12 construct: whole, on cells; Endogenous receptor on human PANC-1 cells, detected by proximity ligation assay; also called CD91/LRP-1
Description: PANC-1 cells seeded onto glass coverslips at a density of 2×10⁵ cells per 22×22-mm coverslip were incubated 16 h with 0.5% serum-containing medium at 37° C. plus a 5% CO₂ humidified atmosphere. The cells were then added with PBS or 15 μg/ml of rHSP90α in the absence or presence of 10 μg/ml of control IgG or the tested anti-HSP90α antibody for another 24-h incubation. The treated cells were then fixed with 3% paraformaldehyde and blocked with the blocking solution provided in the Duolink in situ PLA kit (Olink Bioscience, Uppsala, Sweden). Furthermore, the cell samples were incubated overnight at 4° C. with anti-CD91 antibody (1:80, cat. #550495, BD Biosciences, San Jose, CA, USA) mixed with anti-HSP90α antibody (1:80, cat. #AHP-1339, AbD Serotec, Raleigh, NC, USA) or anti-IKKα antibody (1:80, cat. #3285, Epitomics Co., Burlingame, CA, USA). After washed trice with Tris-buffered saline plus 0.05% Tween 20, the cell samples were incubated with PLA probes for the subsequent ligation and amplification procedure according to the manufacturer's instructions for the Duolink in situ PLA kit. Finally, nuclei were counterstained with 4′,6′-diamidino-2-phenylindole (DAPI; Sigma-Aldrich). Images were photographed and analyzed using Leica TCS SP5 II confocal microscope and LAS AF Lite 4.0 software (Leica, Wetzlar, Germany).

T8 sequence (chain, as listed by the source limits assumed): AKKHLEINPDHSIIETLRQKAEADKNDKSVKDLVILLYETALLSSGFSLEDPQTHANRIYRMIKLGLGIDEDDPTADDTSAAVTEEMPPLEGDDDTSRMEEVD
T12 sequence (Q07954 20-4544 limits assumed): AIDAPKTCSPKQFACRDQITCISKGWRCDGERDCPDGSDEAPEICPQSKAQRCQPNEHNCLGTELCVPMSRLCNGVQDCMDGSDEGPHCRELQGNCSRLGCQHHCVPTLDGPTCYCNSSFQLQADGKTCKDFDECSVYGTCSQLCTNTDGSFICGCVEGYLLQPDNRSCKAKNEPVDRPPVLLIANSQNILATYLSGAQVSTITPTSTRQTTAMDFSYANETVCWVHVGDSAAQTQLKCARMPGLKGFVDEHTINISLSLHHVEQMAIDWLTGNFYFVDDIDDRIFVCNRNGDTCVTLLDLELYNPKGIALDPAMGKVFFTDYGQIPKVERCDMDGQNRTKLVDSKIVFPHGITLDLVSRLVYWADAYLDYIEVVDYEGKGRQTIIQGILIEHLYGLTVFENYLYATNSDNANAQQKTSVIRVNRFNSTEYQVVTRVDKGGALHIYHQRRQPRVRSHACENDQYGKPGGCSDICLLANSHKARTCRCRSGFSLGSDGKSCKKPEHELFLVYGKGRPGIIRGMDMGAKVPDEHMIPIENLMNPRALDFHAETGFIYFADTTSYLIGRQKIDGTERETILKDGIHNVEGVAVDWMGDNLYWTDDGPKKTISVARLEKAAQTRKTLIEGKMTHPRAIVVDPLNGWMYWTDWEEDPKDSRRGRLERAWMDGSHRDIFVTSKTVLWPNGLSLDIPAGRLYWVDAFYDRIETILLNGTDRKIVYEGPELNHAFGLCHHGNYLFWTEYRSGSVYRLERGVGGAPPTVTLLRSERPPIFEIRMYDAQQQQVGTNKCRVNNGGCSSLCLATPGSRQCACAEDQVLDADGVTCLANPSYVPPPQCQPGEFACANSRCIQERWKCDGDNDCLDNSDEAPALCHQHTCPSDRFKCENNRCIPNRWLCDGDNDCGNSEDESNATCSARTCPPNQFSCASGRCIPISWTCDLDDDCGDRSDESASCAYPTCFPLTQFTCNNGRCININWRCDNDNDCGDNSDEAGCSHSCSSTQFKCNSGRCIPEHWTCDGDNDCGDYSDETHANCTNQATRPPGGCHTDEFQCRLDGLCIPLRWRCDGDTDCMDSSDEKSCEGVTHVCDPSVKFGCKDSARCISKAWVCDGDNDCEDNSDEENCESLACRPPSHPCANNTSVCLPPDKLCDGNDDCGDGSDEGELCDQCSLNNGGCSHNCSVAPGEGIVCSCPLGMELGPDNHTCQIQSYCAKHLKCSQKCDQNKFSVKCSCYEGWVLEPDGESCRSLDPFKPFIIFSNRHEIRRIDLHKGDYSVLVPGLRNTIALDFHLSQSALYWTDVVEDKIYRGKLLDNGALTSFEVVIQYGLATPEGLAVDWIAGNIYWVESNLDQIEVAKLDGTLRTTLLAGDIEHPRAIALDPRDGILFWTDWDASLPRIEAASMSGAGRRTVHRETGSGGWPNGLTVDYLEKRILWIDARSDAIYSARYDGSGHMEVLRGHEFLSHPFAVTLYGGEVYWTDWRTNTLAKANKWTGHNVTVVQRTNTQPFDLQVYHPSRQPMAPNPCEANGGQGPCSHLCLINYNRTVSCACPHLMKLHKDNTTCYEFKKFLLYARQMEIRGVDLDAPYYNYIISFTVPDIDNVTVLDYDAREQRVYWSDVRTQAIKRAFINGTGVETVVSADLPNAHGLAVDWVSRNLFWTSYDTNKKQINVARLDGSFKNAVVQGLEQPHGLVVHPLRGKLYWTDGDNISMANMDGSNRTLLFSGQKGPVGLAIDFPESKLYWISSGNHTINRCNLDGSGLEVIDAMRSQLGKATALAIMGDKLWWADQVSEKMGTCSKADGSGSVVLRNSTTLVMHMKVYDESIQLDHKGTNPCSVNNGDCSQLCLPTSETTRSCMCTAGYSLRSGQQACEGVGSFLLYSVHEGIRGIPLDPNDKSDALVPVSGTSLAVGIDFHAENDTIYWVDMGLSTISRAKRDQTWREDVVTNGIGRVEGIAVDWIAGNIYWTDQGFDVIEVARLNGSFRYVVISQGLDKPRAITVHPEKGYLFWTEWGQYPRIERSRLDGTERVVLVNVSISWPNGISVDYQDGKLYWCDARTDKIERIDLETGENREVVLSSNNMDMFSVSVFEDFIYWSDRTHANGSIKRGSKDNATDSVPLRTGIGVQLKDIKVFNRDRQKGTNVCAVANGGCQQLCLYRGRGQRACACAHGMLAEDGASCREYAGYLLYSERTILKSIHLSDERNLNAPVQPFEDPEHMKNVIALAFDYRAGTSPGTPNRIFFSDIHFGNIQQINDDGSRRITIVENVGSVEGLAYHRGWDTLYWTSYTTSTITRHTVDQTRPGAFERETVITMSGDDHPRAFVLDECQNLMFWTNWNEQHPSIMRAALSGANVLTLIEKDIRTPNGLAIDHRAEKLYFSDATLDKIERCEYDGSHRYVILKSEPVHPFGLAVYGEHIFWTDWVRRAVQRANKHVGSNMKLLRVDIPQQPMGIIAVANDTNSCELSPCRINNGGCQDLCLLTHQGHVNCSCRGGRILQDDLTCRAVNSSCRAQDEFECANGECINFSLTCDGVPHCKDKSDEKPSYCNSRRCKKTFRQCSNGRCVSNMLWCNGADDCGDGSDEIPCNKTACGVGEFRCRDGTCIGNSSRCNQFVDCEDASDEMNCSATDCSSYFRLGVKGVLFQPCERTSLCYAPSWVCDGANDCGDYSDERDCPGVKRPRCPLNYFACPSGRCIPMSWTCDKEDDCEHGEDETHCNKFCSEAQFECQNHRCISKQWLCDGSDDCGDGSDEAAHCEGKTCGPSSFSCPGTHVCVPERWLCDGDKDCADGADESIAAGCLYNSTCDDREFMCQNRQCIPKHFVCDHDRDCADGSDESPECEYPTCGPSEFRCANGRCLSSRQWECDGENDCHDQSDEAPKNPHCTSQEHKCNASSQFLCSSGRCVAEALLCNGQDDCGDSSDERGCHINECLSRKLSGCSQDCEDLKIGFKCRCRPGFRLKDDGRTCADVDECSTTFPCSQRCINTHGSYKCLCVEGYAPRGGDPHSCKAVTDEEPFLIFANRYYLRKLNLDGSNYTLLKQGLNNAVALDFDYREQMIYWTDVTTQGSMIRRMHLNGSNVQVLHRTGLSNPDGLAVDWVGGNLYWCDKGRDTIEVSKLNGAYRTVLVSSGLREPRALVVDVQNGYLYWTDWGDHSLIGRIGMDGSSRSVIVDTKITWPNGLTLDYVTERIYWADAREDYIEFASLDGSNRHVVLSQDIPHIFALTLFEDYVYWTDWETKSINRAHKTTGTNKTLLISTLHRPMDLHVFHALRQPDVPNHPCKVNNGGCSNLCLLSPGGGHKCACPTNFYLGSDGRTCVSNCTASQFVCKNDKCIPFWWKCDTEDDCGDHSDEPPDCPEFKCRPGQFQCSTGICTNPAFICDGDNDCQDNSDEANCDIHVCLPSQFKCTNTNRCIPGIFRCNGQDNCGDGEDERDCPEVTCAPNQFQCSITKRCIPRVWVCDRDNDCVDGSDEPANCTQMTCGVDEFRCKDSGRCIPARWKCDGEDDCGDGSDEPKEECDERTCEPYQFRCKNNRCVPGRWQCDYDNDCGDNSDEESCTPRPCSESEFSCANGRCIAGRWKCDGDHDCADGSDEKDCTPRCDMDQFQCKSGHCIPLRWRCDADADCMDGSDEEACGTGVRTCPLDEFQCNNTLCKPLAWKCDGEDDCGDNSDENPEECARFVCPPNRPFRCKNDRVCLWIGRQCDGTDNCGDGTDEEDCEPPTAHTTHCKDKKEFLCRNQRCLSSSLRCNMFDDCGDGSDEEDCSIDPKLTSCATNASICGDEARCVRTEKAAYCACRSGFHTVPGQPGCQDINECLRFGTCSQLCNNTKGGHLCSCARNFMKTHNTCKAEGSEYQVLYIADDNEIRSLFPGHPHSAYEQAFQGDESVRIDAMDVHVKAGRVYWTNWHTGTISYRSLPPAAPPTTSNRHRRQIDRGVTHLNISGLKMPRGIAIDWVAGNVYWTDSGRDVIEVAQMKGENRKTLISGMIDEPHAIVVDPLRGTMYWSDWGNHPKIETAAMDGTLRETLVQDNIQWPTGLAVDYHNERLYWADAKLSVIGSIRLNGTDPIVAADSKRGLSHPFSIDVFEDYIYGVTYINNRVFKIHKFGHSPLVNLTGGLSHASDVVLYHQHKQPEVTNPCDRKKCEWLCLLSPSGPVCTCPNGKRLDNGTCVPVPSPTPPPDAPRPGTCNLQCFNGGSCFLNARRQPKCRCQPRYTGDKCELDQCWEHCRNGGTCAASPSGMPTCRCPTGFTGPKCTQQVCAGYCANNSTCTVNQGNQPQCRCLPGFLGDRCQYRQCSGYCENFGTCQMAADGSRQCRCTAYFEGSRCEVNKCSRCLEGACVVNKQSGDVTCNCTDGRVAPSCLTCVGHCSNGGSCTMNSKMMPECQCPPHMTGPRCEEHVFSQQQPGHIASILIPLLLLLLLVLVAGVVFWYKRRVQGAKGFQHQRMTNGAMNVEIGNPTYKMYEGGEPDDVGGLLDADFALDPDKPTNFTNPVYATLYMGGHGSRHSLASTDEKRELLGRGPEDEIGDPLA

B1: Clone-2-chimera anti-HSP90α antibody (antibody, V domains shown)
VH: EVQVVESGGGLVQPKGSLKLSCAASGFTFKTYAMNWVRQAPGKGLEWVARIRSKSRNYATYYADSVKDRFTISRDDSQFMFYLQMNNLKTEDTAMYYCVVGGSGFDYWGQGTTLTVSS
VL: DVLMTQTPLSLPVSLGDQASISCRSSQSIVHSNGNTYLEWYLQKPGQSPKLLIYKVSNRFSGVPDRFSGSGSGTDFTLSISRVEAGDLGVYYCFQGSHVPWTFGGGTKLEIK
notes: Clone-2 VH and VL joined to human IgG1 constant region (pFUSEss-CHIg-hG1e1; Fc with mutations at Q250T, E356D, M358L, L428M) and human κ constant region (pFUSE2ss-CLIg-hk); expressed in ExpiCHO cells
B1 gave a Kd [1] of 0.094 nM, a koff [2] of 6.7e-05 s⁻¹ and a kon [2] of 711000 M⁻¹ s⁻¹. B1: no binding (VGSDEEEEKK); no binding (DKEVSDDEAE); no binding (EDKEEEKEKE). B1: no binding (EDVGSDEEEE); no binding (KPEIEDVGSD); no binding (EIEDVGSDEE).

B2: Clone-2 anti-HSP90α antibody (mouse monoclonal) (antibody, V domains shown)
VH: B1 VH
VL: B1 VL
notes: Mouse hybridoma antibody, IgG2b isotype with κ light chains; First tested as culture supernatant, then purified; also called Clone-2 antibody; parental Clone-2
B2: no binding (a.a. 630~732).

B3: HH01 anti-HSP90α antibody (Clone-2-hA) (antibody, V domains shown)
VH: B1 VH with V4L, K15G, K19R, K43Q, Q78K, F79N, M80Q, K89R, M95V
VL: B1 VL with L3V, K50Q, S79T, R82S, G86E
notes: expressed in ExpiCHO cells; also called HH01 antibody
B3: no binding (SDEEEEKKDG); no binding (EVSDDEAEEK); no binding (KEKEEKESED). It also gave a Kd [1] of 0.187 nM, a koff [2] of 0.000137 s⁻¹ and a kon [2] of 729000 M⁻¹ s⁻¹.

B4: IKKα (enzyme, human, UniProt O15111 1-745, looked up)
single chain: MERPPGLRPGAGGPWEMRERLGTGGFGNVCLYQHRELDLKIAIKSCRLELSTKNRERWCHEIQIMKKLNHANVVKACDVPEELNILIHDVPLLAMEYCSGGDLRKLLNKPENCCGLKESQILSLLSDIGSGIRYLHENKIIHRDLKPENIVLQDVGGKIIHKIIDLGYAKDVDQGSLCTSFVGTLQYLAPELFENKPYTATVDYWSFGTMVFECIAGYRPFLHHLQPFTWHEKIKKKDPKCIFACEEMSGEVRFSSHLPQPNSLCSLVVEPMENWLQLMLNWDPQQRGGPVDLTLKQPRCFVLMDHILNLKIVHILNMTSAKIISFLLPPDESLHSLQSRIERETGINTGSQELLSETGISLDPRKPASQCVLDGVRGCDSYMVYLFDKSKTVYEGPFASRSLSDCVNYIVQDSKIQLPIIQLRKVWAEAVHYVSGLKEDYSRLFQGQRAAMLSLLRYNANLTKMKNTLISASQQLKAKLEFFHKSIQLDLERYSEQMTYGISSEKMLKAWKEMEEKAIHYAEVGVIGYLEDQIMSLHAEIMELQKSPYGRRQGDLMESLEQRAIDLYKQLKHRPSDHSYSDSTEMVKIIVHTVQSQDRVLKELFGHLSKLLGCKQKIIDLLPKVEVALSNIKEADNTVMFMQGKRQKEIWHLLKIACTQSSARSLVGSSLEGAVTPQTSAWLPPTSAEHDHSLSCVVTPQDGETSAQMIEENLNCLGHLSTIIHEANEEQGNSMMNLDWSWLTE
notes: endogenous, in cells; partner of CD91 in the proximity ligation assay
B4: binds [3].
